Test results from the nanobody polyreactivity screen of Harvey et al. (2022).

Test: yeast display, Sf9 membrane polyspecificity reagent, FACS + sequencing; frameworks hold sequencing errors
Summary of the method: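 Sorting gates, low and high (top ~1%), were placed on anti-HA fluorescence to track expression and on streptavidin fluorescence to track reagent binding. A clone's polyreactivity label is taken from the gate it came out of. The reagent was 10% biotinylated, detergent-solubilized Sf9 membrane, applied for 1 hour at 4 °C to galactose-induced yeast display cells.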

Sequence	polyreactivity (PSR sort gate)
QVQHVESGGGLVQAGGSLRLSCAASGRIFNLYAMGWYRQAPGKERELVAAIRGRGTSTYYADSVKGRFTISSDNAKNTVFLQINSLKPEDTAVYYCAREGGYGPTLQDTSRYEYCGQGTQVTVSS	low polyreactivity
QVQHVESGGGLVQAGGSLRLSCAASGRIFPFNAMGCYRQAPGKETEFVAAIRLSGTRTYYADSVKGRFTISRDNAKNTVYLQMNCLNPEDTAVYYCAAKFSGHYYNYDYWGQGTQVTVSS	high polyreactivity
QVQHVESGGGLVQAGGSLRLSCAASGRIFSSNAMGWYRQAPGKERELVASITSGGNTNYADSVKGRFTISRDNAKNTVYLQMNSLKPEDTAVYYCAALSKTRCGYWGQGTQVTVSS	high polyreactivity
QVQHVESGGGLVQAGGSLRLSCAASGRIFSTNPMGWSRQAPGKERELVAAITTSGGITYYADSVKGRFTISRDNAKNTVYLQMNSLKPEDTGVYYCNTGYYGRLRDDYWGQGTQVTVSS	high polyreactivity
QVQHVESGGGLVQAGGSLRLSCAASGRIFTYYTMGWYRPAPGKEREFVAAISWSGTSTYYADSVKGRFRISRDNAKNTVYLQMKSLKPEDTAVYSCAARNWYSRYDYWGQGTQVTVSS	high polyreactivity
QVQHVESGGGLVQAGGSLRLSCAASGRIFYAYAMGWYRQAPGKQREMVAAITARGGSTYYADSVKGRFTISRDNAKNTVYLQINSLKPEDTAVYYCAKDTLLETGYEYWGQGTQVTVSS	high polyreactivity
QVQHVESGGGLVQAGGSLRLSCAASGRNFTYYAMGWYRQAPGKERELVAAISGGGITNYADSVKGRFTISRDNAKNTVYLQMNSLKPEDTAVYYCAADQRYRRAFRSRYGSWGQGTQVTVSS	low polyreactivity
QVQHVESGGGLVQAGGSLRLSCAASGRTFQYNTMGWYRQAPGKERELVAAISWGGGSTYYADSVKGRFTISRDNAKNTVYLQMNSLKPEDTAVYYCAATHYRGKGYYYWGQGTQLTVSS	low polyreactivity
QVQHVESGGGLVQAGGSLRLSCAASGRTFRANTMGWYRQAPGKERELVASIRGNGGTTYYADSVKGRFTISRDNAKNTVYLQMNSLKPEDTAVYYCAAGLYYIRWSRRYEYWGQGTQVTVSS	high polyreactivity
QVQHVESGGGLVQAGGSLRLSCAASGRTFVRYAMGWSRPAPGKERELVAAISRSGVGTYYADSVKGRFTISRDNAKKTVYLQMNSLKPEDTAVYYCNALPGTQYNYWGQGTQVTVSS	high polyreactivity
QVQHVESGGGLVQAGGSLRLSCAASGRTFYLNAMGWSRQAPGKARELVATISYTGDTTYYADSVKGRFTISRDNAKNTVYLQMNSLKPEDTAVYYCAKDYSLTQQRHAAYIVGSVDYWGQGTQVTVSS	high polyreactivity
QVQHVESGGGLVQAGGSLRLSCAASGRTFYNYAKGWYRQAPGKERELVAGITSCGGSTYYADSVKGRFTISRDNAKNTVYLQMNSLKPEDTAVYYCARVWPSQKHYYWGQGTQVTVSS	high polyreactivity
QVQHVESGGGLVQAGGSLRLSCAASGRTFYRYAMGWYRQAPGKERELVAAISGSGTSTSYADSVKGRFTISRDNAKNSVYLQMNSLKPEDTAVYYCAATYYVYYYSRYYFWGQGTQVTVSS	high polyreactivity
QVQHVESGGGLVQAGGSLRLSCAASGRTFYSYAMGWYRQAPGKDRELVAAITSDGGTYYADSVKGRFTISRDNAKNTVYLQMNSLKPDDTAVYYCNTRDLYGYPQVTGYDYWGQGTQVTVSS	low polyreactivity
QVQHVESGGGLVQAGGSLRLSCAASGRTLIYNAMGWYRQAPGKERELVAAITGGGGRTYYADSVKGRFTISRDNAKNTVYLQMNSLKPEDTAVYYCAVAGTVLSHMGYWGQGTQVTVSS	low polyreactivity
QVQHVESGGGLVQAGGSLRLSCAASGRTSIPYAMGRYRQAPGKEWQLVAAISYSVGRTYYADSVKGRFTISRDNAKNTVYLQMNSLKPEDTAVYYCAAEYNGVVRDYDYWGQGTQVTVSS	low polyreactivity
QVQHVESGGGLVQAGGSLRLSCAASGRTVYGYTMGWDRQAPGKERELVAAISYSGDSTYYADSVKGRFTISRDTAKNTVYFPMNSLKPEYTAVYYCAVRRYARFNYHYWGQGPQVTVSS	high polyreactivity
QVQHVESGGGLVQAGGSLRLSCAASGSIFEDYVMGWYRQAPGKERELVADITSGGTTYYADSVKGRFTISRDNAKNTVYLQMNSLKPEDTAVYYCAAEVDWVPFLLDYWGQGTQVTVSS	low polyreactivity
QVQHVESGGGLVQAGGSLRLSCAASGSIFGDNAMGWYRQAPGKERELVAAISSGGPTYADSVKGRFTISRDNAKNTVYLQMNSLKPEDTAVYYCNATDGITPYDLTDIEFDYWGQGTQVTVSS	low polyreactivity
QVQHVESGGGLVQAGGSLRLSCAASGSIFPDNAMGWYRQAPGQERELVAAIDKGTGSTNYADSVTGRFTLSRDNAKNNVYFQMNSLKPEDTAVYYCAKGWLTPRGGAWYDDYWGQGTHVTVSS	low polyreactivity
QVQHVESGGGLVQAGGSLRLSCAASGSIFRRYDLGWSRQAPGKERELVAAISSSGGSTYYADSVKGRFTISRDNAKNTVYLQMNSLKPEDTAVYYCAADIYDDDRSESTEYDYWGQGTQVTVSS	low polyreactivity

Sequence	polyreactivity (PSR sort gate)
QVQHVESGGGLVQAGGSLRLSCAASGSIFRWYAMGWYRQAPGKERELVAGITSGGSTNYADSVKGRFTISRDNAKNTVYLQMNSLKPEDTAVYYCNARRWVGSRYDYWGQGTQVTVSS	high polyreactivity
QVQHVESGGGLVQAGGSLRLSCAASGSIFSAYTMGWYRPAPGKERELVAAISSSGGRTYYADSVKGRFTISRDNAKNTVYLQMNSLKPEDTAVYYCAAGYWWALSSRGYGYWGQGTQVTVSS	high polyreactivity
QVQHVESGGGLVQAGGSLRLSCAASGSIFTGNAMGWYRQAPGKEREFVAAITNGGITNYADSVKGRFTISRDNAKNTVYLQMNSLKPEDTAVYYCAADYVDFYSFRRFDYWGQGTQVTVSS	low polyreactivity
QVQHVESGGGLVQAGGSLRLSCAASGSIFTVYAMGWYRQAPGKERELVAGITSGGNTNYADSVKGRFTISRDNAKNTVYLQMNSLKPEDTAVYYCAARIYGYVTYGYWGQGTQVTVSS	low polyreactivity
QVQHVESGGGLVQAGGSLRLSCAASGSIFVPYAMGWYRQAPGKERELVAAISSRGGRTYYADSVKGRFTISRDNAKNTVYLQMISLKPEDTAVYYCNKTAGSHIPRLEYWGQGTQVTVSS	low polyreactivity
QVQHVESGGGLVQAGGSLRLSCAASGSIFWDNAMGWYRQAPGKERELVAAITSSGDTTYYADSVKGRFTISRDNAKNTVYLQMNSLKPEDTAVYYCAKVFGPTDYLTGTFKGDYWGQGTQVTVSS	low polyreactivity
QVQHVESGGGLVQAGGSLRLSCAASGSIFWYYAMGWYRKAPVKERELVAAITSSGGRTYYADSVKGRFTISRDNAKNTVYLQMNSLKQEDTAVYYCAARQWWRYDYWGQGTQVTVSS	high polyreactivity
QVQHVESGGGLVQAGGSLRLSCAASGSNFGYVMGWYRQAPGKERELVAAISRSGGSTYYADSVKGRFTISRDNAKNTVYLQMNSLKPEDTAVYYCAARLYSSSYNSEQYYYWGQGTQVTVSS	high polyreactivity
QVQHVESGGGLVQAGGSLRLSCAASGSTFARYGLGWYRQAPGKERELVASLTYTGGRTYADSVKGRFTFSRDNAKNTVYLQMNSLKPEDTAVYYCAARYRLWGQGTQVTVSS	low polyreactivity
QVQHVESGGGLVQAGGSLRLSCAASGSTFDDNVMGWYRQAPGKERELVAAISSSGGSTYYADSVKGRFTISRDNAKNTVYLQMNSLKPEDTAVYYCNAVYFGLWGYYARRSYNYWGQGTQVTASS	low polyreactivity
QVQHVESGGGLVQAGGSLRLSCAASGSTFDYNAMGWYRQAPGKERELVAAISFIGGATDYADCVKGRFTISRDNAKNTVYLLMNSLKPEDSGVYYCAADTTSVKDGTFYSWGQGTQVTVSS	low polyreactivity
QVQHVESGGGLVQAGGSLRLSCAASGSTFGYNPMGSYRQAPGKERELTNYADSVKGRFTISRDNAKNTVYLQMNSLKPEDTAVYYCNAQIDFGDPEKRAWGYDYWGQGTQVTVSS	low polyreactivity
QVQHVESGGGLVQAGGSLRLSCAASGSTFPYYAMGWYRQAPGNERELVAAISNGVSTYYADSVKGRFTISRDNAKNTVYFHMNCLKQVDTAVYYCAGDFWITTRDIVKWWLYDYWGQGTQVTVSS	low polyreactivity
QVQHVESGGGLVQAGGSLRLSCAASGSTFVVYAMGWYRQAPGKERELVAAINWSGGSTYYADSVKGRFTISRDNAKNTVYLQMNSLKPEDTAVYYCSAYGVTYRGDYDYWGQGTQVTVSS	low polyreactivity
QVQHVESGGGLVQAGGSLRLSCAASGSTFYHNAMGWYRQAPGKERELVAAITSGTSTYYADSVKGRFTISRDNAKNTVYLHMNSLKPEDTAVYYCAADSPWGGGYFVLYNYWGQGTQVTVSS	low polyreactivity
QVQHVESGGGLVQAGGSLRLSCAASGSTFYRYAMGWYRQAPGNERELVAAISASGGSTYYADSVKGRFTISRDNAKNTVYLQMNSLKPEDTAVYYCNRDRRYRNDYWGQGTQVTVSS	high polyreactivity
QVQHVESGGGLVQAGGSLRLSCAASGTIFLYNAMGWYRQAPGKERELVAAIRGSDGITFYADSVKGRFTISRDNAKNTVYLQMNSLKPEDTAVYYCAKDTYRSPRHDYGYWGQGTQVTVSS	low polyreactivity
QVQHVESGGGLVQAGGSLRLSCAASGYTFCRYAMGWYRQAPGKERELVAAISQSGGRTYYADSVKGRFTISRDNAKNTVYFQMNSLKPDDTAVYYCATSSTQGDDYWGQGTQVTVSS	high polyreactivity
QVQHVESGGGLVQAGGSLRLSCAASGYTFYIYAMGWYRQAHGKERELVATISSSGGGTYYADSVKGRFTISRDNAKNTVYLQMNSLTPEDTAVYYCNADGWYWQAQGYDYWGQGTQVTVSS	low polyreactivity
QVQHVESGGGLVQAGGSLRLSCAASVIIFLWYAMGRYRQAPGKERELGAAISRSGSSTYYADSVKGRFTISRDNAKNTVYLQMNSLKPEDTAVYYCAAAYYSKRSCRFDYWGQGTQVTVSS	high polyreactivity
